Results taken from PMC11452665.

Target: mink ryanodine receptor type 3 (RyR3) (mink)
Assay: cryo-EM structure

Work on “mink ryanodine receptor type 3 (RyR3) (natural protein)” yielded a stoichiometry N of 4.
